Reference: US20250145691A1

Target: Pangolin CoV S2-37 (Pangolin CoV)

B1: Antibody SC45 Fab (Fab, V domains shown)
VH: QVQLQESGPGLVKSSETLSLTCTVSGGSISSYYWSWIRQPPGKGLEWIGCIYSSGSTNYNPSLKSRVTISVDSSKNQFSLRLNSVTAADTAVYYCARHKGTDFWSGYSFTPRGGWFDPWGQGALVSVSS
VL: DIQMTQSPSSLSASVGDRVTITCRASQSISSYLNWYQQKPGKAPKLLIYGASNLQSGVPSRFSGSGSETDFTLTISSLQPEDFASYYCQQSHSIPVTFGQGTKLEIK
Binder B1 has a koff of 0.000923 s⁻¹ and a kon of 32100 M⁻¹ s⁻¹.
